Earlier results, collected in publication PMC3839795.

Molecular target: Asp3 (position 2, ----SDNKTYG)
Assay: NMR
Conditions: free peptide in solution (details not stated)

B1: Heptapeptide derived from turkey ovomucoid third domain (OMTKY3) (Meleagris gallopavo) (peptide)
chain: SDNKTYG
- pKa: about 3.6
